Results: patent US20250376519A1 (JIANGSU HENGRUI PHARMACEUTICALS, published 2025)

T1: human DLL3 (ACRO, DLL3-H52H4) (human, UniProt Q9NYJ7 27-492)
T1 construct: Bought
T1 sequence: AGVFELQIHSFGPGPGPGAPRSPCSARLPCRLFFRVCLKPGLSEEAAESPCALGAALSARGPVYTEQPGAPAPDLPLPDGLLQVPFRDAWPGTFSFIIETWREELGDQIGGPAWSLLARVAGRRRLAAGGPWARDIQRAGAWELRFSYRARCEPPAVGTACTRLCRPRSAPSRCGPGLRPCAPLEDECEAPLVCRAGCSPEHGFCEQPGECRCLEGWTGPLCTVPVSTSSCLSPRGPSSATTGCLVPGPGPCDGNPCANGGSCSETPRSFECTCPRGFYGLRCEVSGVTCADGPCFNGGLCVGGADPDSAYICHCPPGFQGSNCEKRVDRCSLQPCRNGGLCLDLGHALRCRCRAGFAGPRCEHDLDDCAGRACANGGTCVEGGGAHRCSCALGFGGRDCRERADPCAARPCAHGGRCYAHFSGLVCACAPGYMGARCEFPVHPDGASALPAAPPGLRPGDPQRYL

T2: human DLL3 on cells (human, UniProt Q9NYJ7 27-618)
T2 construct: Endogenous on H1184 and SHP77; Cell line is named under assay; also called H1184; DLL3/H82
T2 sequence: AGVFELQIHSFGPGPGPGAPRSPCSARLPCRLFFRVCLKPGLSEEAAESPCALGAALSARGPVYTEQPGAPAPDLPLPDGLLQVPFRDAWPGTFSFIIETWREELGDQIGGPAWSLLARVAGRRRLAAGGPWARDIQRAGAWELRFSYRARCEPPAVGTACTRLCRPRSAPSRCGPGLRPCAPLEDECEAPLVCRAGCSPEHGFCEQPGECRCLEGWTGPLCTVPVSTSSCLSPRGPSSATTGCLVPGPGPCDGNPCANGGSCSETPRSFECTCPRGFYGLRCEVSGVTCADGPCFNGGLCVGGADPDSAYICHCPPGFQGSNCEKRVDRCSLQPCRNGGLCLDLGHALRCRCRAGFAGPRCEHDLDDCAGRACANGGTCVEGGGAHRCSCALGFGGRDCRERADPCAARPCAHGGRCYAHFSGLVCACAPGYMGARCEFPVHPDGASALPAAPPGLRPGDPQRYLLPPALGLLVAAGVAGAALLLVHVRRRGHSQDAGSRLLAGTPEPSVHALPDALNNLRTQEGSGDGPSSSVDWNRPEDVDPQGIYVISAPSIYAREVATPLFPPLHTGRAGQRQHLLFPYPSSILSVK


Key:
[1] = molecular target: T1, human DLL3 (ACRO, DLL3-H52H4); assay: SPR Biacore 8K, Ab captured on Protein A
Excerpt: Test antibodies were affinity-captured with a Protein A biosensor chip (Cat. #29127556, Cytiva) for 18 seconds, and then the antigens human DLL3 (ACRO, DLL3-H52H4), cynomolgus monkey DLL3 (KACTUS, DLL-RM103), mouse DLL3 (KACTUS, DLL-MM103), human CD3D&3E (ACRO, CDD-H52W1), and monkey CD3D&3E (ACRO, CDD-C52W4) were allowed to flow through the surface of the chip for 180 seconds, followed by 600 seconds of dissociation. Reaction signals were detected in real time using a Biacore 8K (Cytiva) instrument to obtain association and dissociation curves. After the dissociation in each experimental cycle, the chip was washed and regenerated with a 10 mM glycine-hydrochloric acid solution (pH 1.5, Cat. #BR-1003-54, Cytiva). Data fitting was performed using a 1:1 Model.

human DLL3 on cells = molecular target: T2, human DLL3 on cells; assay: flow cytometry, DLL3/H82 cells; set-up: key to Emax: geometric mean fluorescence intensity (flow cytometry)
Method: The plates were centrifuged at 300 g for 5 min, and the supernatant was removed. Different concentrations of test antibodies were added at 100 μL/well. The plates were incubated in the dark in a refrigerator at 4° C. for 1 h. After 3 centrifugal washes at 300 g, working concentrations of APC anti-human IgG Fc (BioLegend, 410712) or PE F(ab′)2-goat anti-human IgG (invitrogen, H10104) were added. The plates were incubated in the dark in a refrigerator at 4° C. for 40 min. After 3 centrifugal washes at 300 g, the geometric mean fluorescence intensity was measured on an Invitrogen flow cytometer, and the EC50 values for the binding of the antibodies to DLL3-expressing cells were calculated.

Kd [1] [nM] | koff [1] [s⁻¹] | kon [1] [M⁻¹ s⁻¹] | EC50 (human DLL3 on cells) [nM] | Emax (human DLL3 on cells) | Binder
2.05 | 0.000949 | 464000 | – | – | hu30L5H10 (antibody, human IgG1, kappa, V domains shown) VH: EVRLVQSGAEVKKPGASVKVSCKASGYTFTDYYMNWVRQSHGQSLEWMGIINPYTGDTSYNQKFRGRVTLTVDKSASTAYMELSSLRSEDTAVYYCARYHYGPHLEGYFDVWGQGTTVTVSS VL: DIQMTQSPSSLSASVGDRVTITCKASENVGYVSWYQQKPGKSPKLLIYGASNRYTGVPDRFSGSGSGTDFTLTISSLQPEDFATYYCGQSYSYPLTFGSGTKLEIKR
3.06 | 0.0012 | 391000 | – | – | hu30L5H11 (antibody, human IgG1, kappa, V domains shown) VH: EVRLVQFGAVVKKPGASVKVSCKASGYTFTDYYMNWVRQAPGQSLEWMGIINPYTGDTSYNQKFRGRVTLTVDKSSSTAYMELSSLTSEDTAVYYCARYHYGPHLEGYFDVWGQGTTVTVSS VL: DIQMTQSPSSLSASVGDRVTITCKASENVGYVSWYQQKPGKSPKLLIYGASNRYTGVPDRFSGSGSGTDFTLTISSLQPEDFATYYCGQSYSYPLTFGSGTKLEIKR
1.01 | 0.000921 | 914000 | 0.61 | 4910 | hu30L2H2 (antibody, human IgG1, kappa) heavy: not shown light: DIVMTQSPDSLAVSLGERATINCKASENVGYVSWYQQKPGQPPKLLIYGASNRYTGVPDRFSGSGSATDFTLTISSLQAEDVAVYHCGQSYSYPLTFGQGTKLEIKRTVAAPSVFIFPPSDEQLKSGTASVVCLLNNFYPREAKVQWKVDNALQSGNSQESVTEQDSKDSTYSLSSTLTLSKADYEKHKVYACEVTHQGLSSPVTKSFNRGEC
1.99 | 0.00185 | 929000 | 0.75 | 5560 | hu30L1H3 (antibody, human IgG1, kappa, V domains shown) VH: EVRLVQSGAEVKKPGASVKVSCKASGYTFTDYYMNWVRQAPGQSLEWMGIINPYQGDTSYNQKFRGRVTLTVDKSASTAYMELSSLRSEDTAVYYCARYHYGPHLEGYFDVWGQGTTVTVSS VL: DIVMTQSPDSLAVSLGERATINCKASENVGYVSWYQQKPGQPPKLLIYGASNRYTGVPDRFSGSGSGTDFTLTISSLQAEDVAVYYCGQSYSYPLTFGQGTKLEIKR
0.919 | 0.000787 | 857000 | 0.74 | 5870 | hu30L1H1 (antibody, human IgG1, kappa, V domains shown) VH: EVQLVQSGAEVKKPGASVKVSCKASGYTFTDYYMNWVRQAPGQSLEWMGIINPYNGDTSYNQKFRGRVTITVDKSASTAYMELSSLRSEDTAVYYCARYHYGPHLEGYFDVWGQGTTVTVSS VL: DIVMTQSPDSLAVSLGERATINCKASENVGYVSWYQQKPGQPPKLLIYGASNRYTGVPDRFSGSGSGTDFTLTISSLQAEDVAVYYCGQSYSYPLTFGQGTKLEIKR
1.28 | 0.00116 | 905000 | 0.57 | 5360 | hu30L1H4 (antibody, human IgG1, kappa, V domains shown) VH: EVRLVQSGAEVKKPGASVKVSCKASGYTFTDYYMNWVRQAPGQSLEWMGIINPYSGDTSYNQKFRGRVTLTVDKSASTAYMELSSLRSEDTAVYYCARYHYGPHLEGYFDVWGQGTTVTVSS VL: DIVMTQSPDSLAVSLGERATINCKASENVGYVSWYQQKPGQPPKLLIYGASNRYTGVPDRFSGSGSGTDFTLTISSLQAEDVAVYYCGQSYSYPLTFGQGTKLEIKR
1.32 | 0.00131 | 989000 | 0.86 | 6050 | hu30L1H2 (antibody, human IgG1, kappa) heavy: not shown light: DIVMTQSPDSLAVSLGERATINCKASENVGYVSWYQQKPGQPPKLLIYGASNRYTGVPDRFSGSGSGTDFTLTISSLQAEDVAVYYCGQSYSYPLTFGQGTKLEIKRTVAAPSVFIFPPSDEQLKSGTASVVCLLNNFYPREAKVQWKVDNALQSGNSQESVTEQDSKDSTYSLSSTLTLSKADYEKHKVYACEVTHQGLSSPVTKSFNRGEC
